T1: FcγRIIb extracellular domain with C-terminal His tag (human, UniProt P31994 43-217)
T1 construct: extracellular domain; also called FcgRIIb; 2b; not shown: His tag at the C terminus
T1 sequence (looked up): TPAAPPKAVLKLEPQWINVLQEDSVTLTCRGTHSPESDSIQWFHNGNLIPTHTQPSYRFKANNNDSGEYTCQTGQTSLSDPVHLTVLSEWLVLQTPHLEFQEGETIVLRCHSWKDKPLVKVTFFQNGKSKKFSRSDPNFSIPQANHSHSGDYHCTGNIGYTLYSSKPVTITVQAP

T2: FcγRIIa H (human, UniProt P12318 34-217)
T2 construct: extracellular domain; Soluble His-tagged extracellular domain expressed in FreeStyle293 cells; also called FcγRIIa type H; FcgRIIa H; not shown: His tag attached to the C terminus
T2 sequence (looked up): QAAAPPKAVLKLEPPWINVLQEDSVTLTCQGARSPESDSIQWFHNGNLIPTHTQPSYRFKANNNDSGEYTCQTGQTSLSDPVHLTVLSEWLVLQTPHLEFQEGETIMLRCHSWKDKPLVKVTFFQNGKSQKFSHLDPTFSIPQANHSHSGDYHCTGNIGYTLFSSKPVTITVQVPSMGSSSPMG

T3: FcγRIIb (human, UniProt P31994 43-217)
T3 construct: extracellular domain; Soluble His-tagged extracellular domain expressed in FreeStyle293 cells; also called FcgRIIb; 2b; not shown: His tag attached to the C terminus
T3 sequence (looked up): T1 sequence (looked up)

T4: FcγRIIa H (human, UniProt P12318 34-217)
T4 construct: extracellular domain; also called FcgRIIa H type; 2aH
T4 sequence (looked up): T2 sequence (looked up)

T5: FcγRIIb (human, UniProt P31994 43-217)
T5 construct: extracellular domain; also called FcgRIIb; 2b
T5 sequence (looked up): T1 sequence (looked up)

B1: GpH7-A5/GpH7-B3 variant T335_06M/GpL16-k0 (antibody, human IgG1, kappa)
heavy 1: not shown
heavy 2: not shown
light: DIVMTQSPLSLPVTPGEPASISCQASESLVHSNRNTYLHWYLQKPGQSPQLLIYKVSNRFSGVPDRFSGSGSGTDFTLKISRVEAEDVGVYYCSQNTHVPPTFGQGTKVEIERTVAAPSVFIFPPSDEQLKSGTASVVCLLNNFYPREAKVQWKVDNALQSGNSQESVTEQDSKDSTYSLSSTLTLSKADYEKHKVYACEVTHQGLSSPVTKSFNRGEC
notes: He Ab: the mutation stands only in the GpH7-B3-derived H chain; also called He Ab T335M
B2: GpH7-A5/GpH7-B3 variant P331_16H/GpL16-k0 (antibody, human IgG1, kappa)
heavy 1: not shown
heavy 2: not shown
light: B1 light
notes: Heterodimerized anti-glypican-3 IgG1; mutation in the GpH7-B3 H chain only; also called He Ab
B3: GpH7-A5/GpH7-B3 variant N325_13S/GpL16-k0 (antibody, human IgG1, kappa)
heavy 1: not shown
heavy 2: not shown
light: B1 light
notes: as for B2
B4: GpH7-A5/GpH7-B3 variant P331_07I/GpL16-k0 (antibody, human IgG1, kappa)
heavy 1: not shown
heavy 2: not shown
light: B1 light
notes: as for B2
B5: GpH7-A5/GpH7-B3 variant E333_08L/GpL16-k0 (antibody, human IgG1, kappa)
heavy 1: not shown
heavy 2: not shown
light: B1 light
notes: Heterodimerized anti-glypican-3 IgG1; substitution in only one H chain (the GpH7-B3 chain); also called He Ab
B6: GpH7-A5/GpH7-B3 variant L328_20W/GpL16-k0 (antibody, human IgG1, kappa)
heavy 1: not shown
heavy 2: not shown
light: B1 light
notes: as for B2
B7: GpH7-A5/GpH7-B3 variant P331_04F/GpL16-k0 (antibody, human IgG1, kappa)
heavy 1: not shown
heavy 2: not shown
light: B1 light
notes: as for B2
B8: GpH7-A5/GpH7-B3 variant L328_15Y/GpL16-k0 (antibody, human IgG1, kappa)
heavy 1: not shown
heavy 2: not shown
light: B1 light
notes: as for B2
B9: GpH7-A5/GpH7-B3 variant I336_18N/GpL16-k0 (antibody, human IgG1, kappa)
heavy 1: not shown
heavy 2: not shown
light: B1 light
notes: He Ab: the mutation stands only in the GpH7-B3-derived H chain; also called He Ab I336N
B10: GpH7-A5/GpH7-B3 variant I336_03V/GpL16-k0 (antibody, human IgG1, kappa)
heavy 1: not shown
heavy 2: not shown
light: B1 light
notes: He Ab: the mutation stands only in the GpH7-B3-derived H chain; also called He Ab I336V
B11: GpH7-A5/GpH7-B3 variant P331_20W/GpL16-k0 (antibody, human IgG1, kappa)
heavy 1: not shown
heavy 2: not shown
light: B1 light
notes: as for B2
B12: GpH7-A5/GpH7-B3 variant T335_05P/GpL16-k0 (antibody, human IgG1, kappa)
heavy 1: not shown
heavy 2: not shown
light: B1 light
notes: He Ab: the mutation stands only in the GpH7-B3-derived H chain; also called He Ab T335P
B13: GpH7-A5/GpH7-B3 variant E333_09D/GpL16-k0 (antibody, human IgG1, kappa)
heavy 1: not shown
heavy 2: not shown
light: B1 light
notes: as for B5
B14: GpH7-A5/GpH7-B3 variant K334_01G/GpL16-k0 (antibody, human IgG1, kappa)
heavy 1: not shown
heavy 2: not shown
light: B1 light
notes: He Ab: the mutation stands only in the GpH7-B3-derived H chain; also called He Ab K334G
B15: GpH7-A5/GpH7-B3 variant N325_16H/GpL16-k0 (antibody, human IgG1, kappa)
heavy 1: not shown
heavy 2: not shown
light: B1 light
notes: as for B2
B16: GpH7-A5/GpH7-B3 variant P331_10E/GpL16-k0 (antibody, human IgG1, kappa)
heavy 1: not shown
heavy 2: not shown
light: B1 light
notes: as for B2
B17: GpH7-A5/GpH7-B3 variant P331_03V/GpL16-k0 (antibody, human IgG1, kappa)
heavy 1: not shown
heavy 2: not shown
light: B1 light
notes: as for B2

Assays:
[1] = molecular target: T1, FcγRIIb extracellular domain with …; test: SPR (Biacore), antibody captured via antigen peptide, FcγR as analyte; binding relative to GpH7-A5/GpH7-B3/GpL16-k0 = 100
[2] = molecular target: T6, FcγRIIIa extracellular domain with C-terminal His tag (human, UniProt P08637 17-208); test: as above
T6 construct: extracellular domain; also called FcgRIIIa; 3a; not shown: His tag at the C terminus

FcγRIIa H [3] = molecular target: T2, FcγRIIa H; test: SPR (Biacore); He/Con_2aH divided by He/Con_2b (FcγRIIb) of the same antibody
Procedure: The heterodimerized antibodies He Abs in which one of the H chains was introduced with an alteration were assayed for their binding activities to each activating FcγR and inhibitory FcγR according to the method described in Example 4. […] The activating FcγRs in FIGS. 26, 27, 28, and 29 are FcγRIa, FcγRIIa (R), FcγRIIa (H), and FcγRIIIa, respectively.
(§1) Analysis of interaction between objective antibody and the FcγR was carried out using Biacore T100 (GE Healthcare). HBS-EP+ (GE Healthcare) was used as the running buffer, and the measurement temperature was set to 25° C. Chips produced by immobilizing the antigen peptide by the amine coupling method to a Series S Sencor Chip CM5 (GE Healthcare), or alternatively, chips produced by allowing preliminarily biotinylated antigen peptides to interact with and immobilize onto a Series S Sensor Chip SA (certified) (GE Healthcare) were used. Antibodies of interest were captured onto an antigen peptide-immobilized chip, and allowed to interact to each FcγR diluted with running buffer. To regenerate and repeatedly use the chip, the antibodies captured on the chip were washed off by reacting 10 mM glycine-HCl, pH 1.5.

FcγRIIb [4] = molecular target: T3, FcγRIIb; test: SPR (Biacore), captured antibody, FcγR analyte; relative to GpH7-A5/GpH7-B3/GpL16-k0 = 100
Procedure: as §1
(§2) The FcγR-binding activity of each antibody was assessed primarily using as an indicator the FcγR-binding activity and dissociation constant for FcγR.

FcγRIIa H [5] = molecular target: T2, FcγRIIa H; test: as above
Procedure: as §1, §2

FcγRIIa H [6] = molecular target: T4, FcγRIIa H; test: SPR (Biacore), antibody captured on antigen-peptide chip, FcγR as analyte; binding relative to GpH7-A5/GpH7-B3/GpL16-k0 = 100
FcγRIIb [7] = molecular target: T5, FcγRIIb; test: as above

T6 sequence (P08637 17-208): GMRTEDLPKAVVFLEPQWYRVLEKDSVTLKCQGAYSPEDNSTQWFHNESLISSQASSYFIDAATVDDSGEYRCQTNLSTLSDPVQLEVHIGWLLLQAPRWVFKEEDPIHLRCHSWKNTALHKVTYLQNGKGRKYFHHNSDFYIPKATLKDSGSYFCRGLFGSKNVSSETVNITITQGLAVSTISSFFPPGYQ

| Binder | He/Con_2b [1] | He/Con_3a [2] | He_2aH/2b (FcγRIIa H [3]) [ratio] | He/Con_2b (FcγRIIb [4]) | He/Con_2aH (FcγRIIa H [5]) | He/Con_2aH (FcγRIIa H [6]) | He/Con_2b (FcγRIIb [7]) |
| --- | --- | --- | --- | --- | --- | --- | --- |
| B1 | 99.4 relative (control = 100) | 102 relative (control = 100) |  |  |  |  |  |
| B2 |  |  | 0.73 | 116 relative (control = 100) | 84.5 relative (control = 100) |  |  |
| B3 |  |  | 0.45 | 177 relative (control = 100) | 79.7 relative (control = 100) |  |  |
| B4 |  |  | 0.68 | 114 relative (control = 100) | 77.4 relative (control = 100) |  |  |
| B5 |  |  |  |  |  | 102 % of HeCon Ab | 95 % of HeCon Ab |
| B6 |  |  | 0.48 | 235 relative (control = 100) | 113 relative (control = 100) |  |  |
| B7 |  |  | 0.77 | 110 relative (control = 100) | 84.7 relative (control = 100) |  |  |
| B8 |  |  | 0.47 | 193 relative (control = 100) | 90 relative (control = 100) |  |  |
| B9 | 97.6 relative (control = 100) | 104 relative (control = 100) |  |  |  |  |  |
| B10 | 90.3 relative (control = 100) | 112 relative (control = 100) |  |  |  |  |  |
| B11 |  |  | 0.75 | 111 relative (control = 100) | 82.8 relative (control = 100) |  |  |
| B12 | 99.9 relative (control = 100) | 105 relative (control = 100) |  |  |  |  |  |
| B13 |  |  |  |  |  | 103 % of HeCon Ab | 94.3 % of HeCon Ab |
| B14 | 92.5 relative (control = 100) | 121 relative (control = 100) |  |  |  |  |  |
| B15 |  |  | 0.68 | 70.1 relative (control = 100) | 48 relative (control = 100) |  |  |
| B16 |  |  | 0.75 | 116 relative (control = 100) | 87.1 relative (control = 100) |  |  |
| B17 |  |  | 0.7 | 119 relative (control = 100) | 82.5 relative (control = 100) |  |  |

— patent US20180155451A1 (published 2018)
